From the Human Domainome abundance scans (Beltran et al. 2025)

B1: Triacylglycerol hydrolase DDHD2, residues 389 to 447; numbered along this chain, O94830 (parent)
chain: TLEEDLKKLQLSEFFDIFEKEKVDKEALALCTDRDLQEIGIPLGPRKKILNYFSTRKNS

Variants of: B1
Test: abundance fitness (aPCA) (normalised: wild type 0, dead -1); higher = more abundant; growth selection in yeast, the domain comes from the species named
Conditions: Homo sapiens

Abundance fitness of substitutions, site by site:
K20: T -0.104 | A 0.07 | V -0.432 | Y -0.324 | W -0.536 | H -0.212 | Q -0.317 | F -0.524 | N -0.142 | C -0.538 | L -0.386 | P -0.591 | S -0.332 | D -0.126 | M 0.081 | G -0.26 | I -0.321
S12: L -0.104 | I -0.012 | K -0.032 | C -0.22 | Y -0.13 | W -0.137 | M -0.119 | G -0.099 | T 0.017 | A -0.023 | H 0.052 | E 0.016 | V -0.099 | R -0.274 | D 0.037 | Q 0.101 | P -0.301
A29: S 0.106 | E 0.005 | F -0.066 | D -0.264 | N 0.142 | P 0.03 | R 0.011 | V -0.401 | G -0.191 | C -0.23 | W -0.399 | L -0.323 | H 0.06 | M -0.156 | T 0.032 | I 0.012
E19: N -0.187 | G -0.359 | P -0.857 | Y -0.255 | H -0.024 | T 0.023 | I 0.007 | W -0.463 | S -0.054 | D 0.129 | R -0.007 | F -0.082 | M 0.016 | L 0.054 | C -0.161 | A -0.225 | V 0.049
L30: S 0.489 | M 0.483 | Y 0.164 | W 0.263 | N 0.687 | C 0.593 | P -0.177 | E 0.49 | I 0.513 | A 0.477 | D 0.423 | H 0.377 | V 0.329 | Q 0.238 | T 0.556 | F -0.031 | R 0.581 | G 0.452 | K 0.642
D24: L -0.881 | C -0.087 | W -0.888 | T 0.494 | R -0.396 | K -0.115 | A 0.026 | V -0.707 | I -1.2 | Q -0.044 | E -0.023 | M -0.286 | S 0.466 | F -0.033 | N 0.155 | Y -0.627 | P -0.561 | H -0.587
K22: Y 0.089 | G 0.455 | L -0.172 | F 0.002 | I -0.479 | C -0.083 | D 0.194 | S 0.107 | A -0.039 | M -0.103 | R -0.193 | Q -0.247 | T -0.16 | W -0.729 | H 0.076 | E 0.141 | N 0.381
D16: Q 0.106 | G -0.088 | I -0.156 | S -0.057 | Y -0.435 | F 0.015 | V -0.096 | M -0.228 | C -0.084 | R 0.049 | P -0.145 | L -0.33 | K 0.089 | T -0.019 | E 0.075 | N -0.025 | H -0.033 | W -0.036 | A 0.026
E26: H 0.153 | Q -0.107 | F -0.223 | W -0.086 | T -0.173 | K 0.481 | N -0.109 | A -0.052 | V -0.21 | G 0.27 | R 0.137 | D 0.002 | I -0.219 | M -0.072 | L -0.383
F14: M -0.015 | N -0.193 | A -0.098 | P -0.581 | Q -0.205 | H -0.599 | G -0.775 | R -0.671 | Y -0.506 | L 0 | W -0.179 | E -0.592 | T -0.521 | V -0.505 | S -0.511 | I -0.365 | C -0.28
V23: N -0.414 | Q -0.331 | L 0.354 | I 0.417 | W 0.593 | C -0.47 | E -0.434 | A -0.339 | H -0.376 | M 0.773 | K 0.101 | Y 0.451 | G -0.426 | P -0.374 | T -0.231 | S -0.391 | F 0.437 | D -0.177 | R -0.311
E21: V 0.029 | H 0.155 | M 0.86 | T 0.212 | A 0.599 | F 0.616 | N 0.428 | R 0.508 | K 0.809 | P -0.27 | S 0.453 | L 0.45 | C 0.257 | I 0.245 | Q 0.137 | W 0.299 | D -0.275 | Y 0.385
I17: V 0.128
E13: L -0.608 | Y -0.012 | V -0.109 | M -0.135 | Q -0.215 | S -0.252 | P -0.432 | T -0.538 | G -0.576 | R -0.408 | W -1.45 | A -0.036
C31: N -0.304 | K 0.489 | G -0.294 | F 0.605 | I 0.035 | L 0.526 | P -0.196 | E -0.366 | A 0.343 | M 0.977
L11: M -0.125 | Y -1.15 | K -1.14 | V -0.401 | P -1 | S -0.969 | W -1.12 | G -1.22 | R -0.996 | H -0.83 | T -0.871 | N -1.02 | I -0.257
F18: Q -0.31 | D -0.399 | A -0.134 | H -0.533 | G -0.644 | R -0.685 | I -0.16 | N -0.197 | E -0.508 | Y -0.293 | M -0.225 | S -0.445 | T -0.759 | V -0.45 | W -0.535 | K -0.081 | P -0.035
K25: P -0.048 | T -0.302 | N -0.494 | S -0.088 | Q -0.285 | M 0.086 | D -0.027 | A -0.05 | G 0.083 | E 0.293 | V 0.027 | H 0.159 | L 0.03 | W -0.329 | I -0.041 | R -0.053 | F -0.078
L28: Q -0.365 | N -0.404 | K -0.467 | C -0.325 | E -0.129 | G -0.386 | Y -0.634 | P -0.504 | I -0.368 | W -0.383 | T -0.342 | M -0.067 | S -0.215 | V 0.073 | D -0.196 | R -0.498 | A -0.352 | H -0.252
F15: G 0.007 | Q -0.103 | H -0.084 | D -0.465 | I -0.513 | K 0.068 | V -0.097 | Y -0.114 | W -0.311 | P -0.537 | C -0.035 | M -0.175 | E -0.029 | R -0.077 | L 0.02 | A -0.005 | T 0.112 | S 0.088 | N 0.05
A27: H 0.357 | N 0.263 | V 0.047 | Q 0.475 | D 0.437 | Y 0.6 | I -0.045 | C 0.429 | G 0.316 | L -0.039 | W 0.841 | M 0.639 | T 0.057 | F 0.708 | P -0.355 | S -0.096 | K 0.67 | E 0.231
